Reference: patent publication US20220259281A1

Target: human CD40 (human) (UniProt P25942)
Assay: flow cytometry on PATHHUNTER U2OS-NIK/NFkB reporter cells; isotype control; beside it Unstained 56.7 and hCD40-APC 16805

Chain of human CD40 (human) (P25942 21-277): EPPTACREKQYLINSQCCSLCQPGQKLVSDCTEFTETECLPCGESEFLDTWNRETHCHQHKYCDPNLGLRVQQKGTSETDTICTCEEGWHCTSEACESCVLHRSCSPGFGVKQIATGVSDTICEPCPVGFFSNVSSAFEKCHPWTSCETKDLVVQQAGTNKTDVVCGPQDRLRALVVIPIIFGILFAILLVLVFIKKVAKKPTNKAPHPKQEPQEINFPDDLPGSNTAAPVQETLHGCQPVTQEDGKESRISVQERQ

MFI-APC: 2160
Substance: APC Isotype (antibody)
